Assay results reported in IntAct's records for PubMed 23434407.

Tests used:
cab39_human CAB39 [1] = target: cab39_human CAB39 (UniProt Q9Y376)
cab39_human CAB39 [2] = target: cab39_human CAB39 (UniProt Q9Y376); remark: listed apart in the source
cab39_human CAB39 [3] = target: cab39_human CAB39 (UniProt Q9Y376); remark: listed apart in the source
cab39_human CAB39 [4] = target: cab39_human CAB39 (UniProt Q9Y376); remark: listed apart in the source

Chain of cab39_human CAB39 (Q9Y376 whole entry): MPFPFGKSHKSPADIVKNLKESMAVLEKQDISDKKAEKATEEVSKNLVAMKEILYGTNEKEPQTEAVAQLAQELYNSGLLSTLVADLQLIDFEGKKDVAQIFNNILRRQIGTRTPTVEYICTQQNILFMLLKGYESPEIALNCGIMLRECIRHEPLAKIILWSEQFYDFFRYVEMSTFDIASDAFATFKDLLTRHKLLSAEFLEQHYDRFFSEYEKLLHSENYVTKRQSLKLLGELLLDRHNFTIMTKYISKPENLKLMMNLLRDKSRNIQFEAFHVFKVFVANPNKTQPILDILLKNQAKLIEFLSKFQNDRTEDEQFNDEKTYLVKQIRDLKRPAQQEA
Chain of Serine/threonine-protein kinase 26 (Homo sapiens), Q9P289-1 W324E (Q9P289 whole entry W324E): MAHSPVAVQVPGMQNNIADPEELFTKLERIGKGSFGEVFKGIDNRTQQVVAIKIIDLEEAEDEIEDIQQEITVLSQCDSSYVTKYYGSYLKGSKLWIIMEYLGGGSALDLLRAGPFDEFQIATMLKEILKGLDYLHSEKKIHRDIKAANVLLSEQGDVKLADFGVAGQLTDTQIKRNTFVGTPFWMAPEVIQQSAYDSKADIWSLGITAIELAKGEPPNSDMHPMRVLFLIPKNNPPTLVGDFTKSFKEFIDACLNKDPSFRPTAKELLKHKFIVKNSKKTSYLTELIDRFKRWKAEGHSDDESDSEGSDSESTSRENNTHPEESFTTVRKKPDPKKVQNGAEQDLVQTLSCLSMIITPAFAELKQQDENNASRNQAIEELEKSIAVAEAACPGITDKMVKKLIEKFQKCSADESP
Chain of Serine/threonine-protein kinase 26 (Homo sapiens), Q9P289-1 L90E;L95E (Q9P289 whole entry L90E/L95E): as the sequence (Q9P289 whole entry W324E) above, with L90E, L95E, E324W counted along it
Chain of Serine/threonine-protein kinase 26 (Homo sapiens), Q9P289-1 Y134A (Q9P289 whole entry Y134A): as the sequence (Q9P289 whole entry W324E) above, with Y134A, E324W counted along it
Chain of Serine/threonine-protein kinase 26 (Homo sapiens), Q9P289-1 L95E (Q9P289 whole entry L95E): as the sequence (Q9P289 whole entry W324E) above, with L95E, E324W counted along it
Chain of Serine/threonine-protein kinase 26 (Homo sapiens), Q9P289-1 E58A (Q9P289 whole entry E58A): as the sequence (Q9P289 whole entry W324E) above, with E58A, E324W counted along it
Chain of Serine/threonine-protein kinase 26 (Homo sapiens), Q9P289-1 F229A (Q9P289 whole entry F229A): as the sequence (Q9P289 whole entry W324E) above, with F229A, E324W counted along it
Chain of Serine/threonine-protein kinase 26 (Homo sapiens), Q9P289-1 D242A;K276A (Q9P289 whole entry D242A/K276A): as the sequence (Q9P289 whole entry W324E) above, with D242A, K276A, E324W counted along it
Chain of Serine/threonine-protein kinase 26 (Homo sapiens), Q9P289-1 E138A (Q9P289 whole entry E138A): as the sequence (Q9P289 whole entry W324E) above, with E138A, E324W counted along it
Chain of Serine/threonine-protein kinase 26 (Homo sapiens), Q9P289-1 L228E (Q9P289 whole entry L228E): as the sequence (Q9P289 whole entry W324E) above, with L228E, E324W counted along it
Chain of Serine/threonine-protein kinase 26 (Homo sapiens), Q9P289-1 D162A (Q9P289 whole entry D162A): as the sequence (Q9P289 whole entry W324E) above, with D162A, E324W counted along it
Chain of Serine/threonine-protein kinase 26 (Homo sapiens), Q9P289-1 M225E (Q9P289 whole entry M225E): as the sequence (Q9P289 whole entry W324E) above, with M225E, E324W counted along it

For “Serine/threonine-protein kinase 26 (Homo sapiens), Q9P289-1 D162A”, the “effect of a mutation on the interaction” value (cab39_human CAB39 [1]) was “decreasing interaction strength”.

“Serine/threonine-protein kinase 26 (Homo sapiens), Q9P289-1 D242A;K276A” was tested, and the “effect of a mutation on the interaction” value (cab39_human CAB39 [2]) was “decreasing interaction strength”.

For “Serine/threonine-protein kinase 26 (Homo sapiens), Q9P289-1 E58A”, the “effect of a mutation on the interaction” value (cab39_human CAB39 [3]) was “decreasing interaction strength”.

“Serine/threonine-protein kinase 26 (Homo sapiens), Q9P289-1 E138A” was tested, and the “effect of a mutation on the interaction” value (cab39_human CAB39 [4]) was “decreasing interaction strength”.

For “Serine/threonine-protein kinase 26 (Homo sapiens), Q9P289-1 F229A”, the “effect of a mutation on the interaction” value (cab39_human CAB39 [2]) was “decreasing interaction strength”.

“Serine/threonine-protein kinase 26 (Homo sapiens), Q9P289-1 L90E;L95E” was tested, and the “effect of a mutation on the interaction” value (cab39_human CAB39 [4]) was “disrupting interaction strength” and the “effect of a mutation on the interaction” value (cab39_human CAB39 [3]) was “decreasing interaction strength”.

For “Serine/threonine-protein kinase 26 (Homo sapiens), Q9P289-1 L95E”, the “effect of a mutation on the interaction” value (cab39_human CAB39 [4]) was “disrupting interaction strength” and the “effect of a mutation on the interaction” value (cab39_human CAB39 [3]) was “decreasing interaction strength”.

With “Serine/threonine-protein kinase 26 (Homo sapiens), Q9P289-1 L228E” the “effect of a mutation on the interaction” value (cab39_human CAB39 [2]) was “decreasing interaction strength”.

“Serine/threonine-protein kinase 26 (Homo sapiens), Q9P289-1 M225E” was tested, and the “effect of a mutation on the interaction” value (cab39_human CAB39 [2]) was “decreasing interaction strength”.

With “Serine/threonine-protein kinase 26 (Homo sapiens), Q9P289-1 W324E” the “effect of a mutation on the interaction” value (cab39_human CAB39 [4]) was “disrupting interaction strength” and the “effect of a mutation on the interaction” value (cab39_human CAB39 [3]) was “decreasing interaction strength”.

With “Serine/threonine-protein kinase 26 (Homo sapiens), Q9P289-1 Y134A” the “effect of a mutation on the interaction” value (cab39_human CAB39 [4]) was “disrupting interaction strength” and the “effect of a mutation on the interaction” value (cab39_human CAB39 [3]) was “decreasing interaction strength”.
